# Assay results from the supplement of paper PMC10724198.
# ± gives the standard deviation of the averaged measurements.
# Test system: Saccharomyces cerevisiae
# Assay: protein stability index of tFT-peptide fusion (C-terminal peptide) (PSI (0-1 scale)); higher = more stable (slower turnover)
# Conditions: genetic background: cdc34-1; temperature: 37 C
# Procedure: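 MPS profiling in S. cerevisiae of the tFT-X12 degron library: putative degron peptides plus stable controls, 12 aa, fused to the C-terminus of a sfGFP-mCherry timer. Cells are FACS-sorted into 8 mCherry/sfGFP bins and deep-sequenced. PSI runs from 0 (unstable) to 1 (stable). Backgrounds are wild type, das1Δ and doa10Δ at 30 °C, and wild type, das1Δ, cdc34-1 and cdc53-1 at 37 °C; 2-3 technical replicates each.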
# 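Also: PSI is a weighted mean of sequencing reads over stability bins, variants kept only with over 10 reads, mCherry proximal and sfGFP distal, peptide attached via GGGS linker.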
row,Sequence,protein stability index
1,ACACFWVVWVGW,0.262 ± 0.027
2,ACEFRFFYVFRC,0.304 ± 0.0093
3,AERPVLIIIEFG,0.416 ± 0.039
4,AFFCTLCLFLVS,0.44 ± 0.02
5,AFLCVFGFCFFV,0.423 ± 0.015
6,AFRLRHEIISLM,0.552 ± 0.081
7,AGGLLIGSVGVG,0.434 ± 0.013
8,AISLPVEVLAFS,0.4 ± 0.028
9,AKVSFYALARQY,0.665 ± 0.017
10,ALEFLLLVCRRL,0.589 ± 0.026
11,ALFLYNCVVVTD,0.0493 ± 0.0086
12,ALLYIVVGWSLS,0.0455 ± 0.011
13,ALRLVAFFWVPG,0.482 ± 0.063
14,ALTLSYAIKLKV,0.36 ± 0.02
15,AMFQLRLLVGSV,0.489 ± 0.036
16,APASFRVLISAF,0.021 ± 0.0017
17,APPRSLSPPLLS,0.6637 ± 0.0036
18,ARFFFFCVGILI,0.379 ± 0.0081
19,ARKWVAVTVTLW,0.137 ± 0.038
20,ARVSLSFVSVSA,0.4168 ± 0.004

row,Sequence,protein stability index
1,ARWNTDRRRRQL,0.6089 ± 0.0047
2,ASIEVGNVIKQM,0.672 ± 0.051
3,ASSSPAPYAPYT,0.7006 ± 0.0052
4,ATAVMILCFRWC,0.392 ± 0.0051
5,AVLAALVSTLAG,0.548 ± 0.019
6,AVPTSPYSLIVY,0.524 ± 0.0083
7,AWGSWTLCVAVH,0.0257 ± 0.0088
8,AWWMALAVPIVA,0.02 ± 0.0012
9,CCFVGLRYVLWV,0.431 ± 0.022
10,CCLGVIASFIVW,0.247 ± 0.01
11,CFLLSYRWVFLC,0.0855 ± 0.0055
12,CFSIPLVILNVL,0.468 ± 0.018
13,CFWLLSSLLLFL,0.462 ± 0.016
14,CFYVGFLGYFVF,0.447 ± 0.026
15,CGLGKVLGWRWV,0.643 ± 0.036
16,CGPLLVTLVLSM,0.445 ± 0.045
17,CLAWWLGRVWVC,0.184 ± 0.018
18,CLILGLFSLIFL,0.525 ± 0.061
19,CLRVSFFFWLFA,0.465 ± 0.017
20,CRFYIRITRRYS,0.491 ± 0.017

row,Sequence,protein stability index
1,CRLLVFGLCVGA,0.292 ± 0.012
2,CRWHLRIVRGLM,0.5609 ± 0.0048
3,CSKGLSILLLLL,0.636 ± 0.055
4,CSRDVFLFIKFL,0.391 ± 0.023
5,CSSLIMIITCVN,0.2613 ± 0.00064
6,CTESVYIIRFML,0.638 ± 0.045
7,CVEACVWYNAGL,0.745 ± 0.046
8,CVILVVISGLLG,0.166 ± 0.035
9,CVPGPRWWYHSA,0.671 ± 0.031
10,CWFGLVSLFWVV,0.49 ± 0.051
11,FGWLELVWFDLG,0.646 ± 0.0098
12,GIFYVRTIWSCG,0.232 ± 0.025
13,GRWGGYVGREWG,0.497 ± 0.045
14,GSMGGVGVLGGD,0.544 ± 0.071
15,IGWGGGTWVKMG,0.544 ± 0.0058
16,LEDVLFVMVINI,0.4551 ± 0.0027
17,LLSLLLDPLLCL,0.582 ± 0.024
18,SDGGVVRGGCRG,0.592 ± 0.083
19,SVYLYFQVVAYG,0.0652 ± 0.021
20,VWVVRGFLGFGG,0.532 ± 0.068

# Same assay, conditions: genetic background: cdc53-1; temperature: 37 C
row,Sequence,protein stability index
1,ACACFWVVWVGW,0.374 ± 0.021
2,ACEFRFFYVFRC,0.245 ± 0.016
3,AERPVLIIIEFG,0.532 ± 0.064
4,AFFCTLCLFLVS,0.472 ± 0.033
5,AFLCVFGFCFFV,0.455 ± 0.014
6,AFRLRHEIISLM,0.726 ± 0.024
7,AGGLLIGSVGVG,0.468 ± 0.0094
8,AISLPVEVLAFS,0.387 ± 0.024
9,AKVSFYALARQY,0.715 ± 0.018
10,ALEFLLLVCRRL,0.621 ± 0.024
11,ALFLYNCVVVTD,0.137 ± 0.018
12,ALLYIVVGWSLS,0.185 ± 0.033
13,ALRLVAFFWVPG,0.536 ± 0.038
14,ALTLSYAIKLKV,0.395 ± 0.022
15,AMFQLRLLVGSV,0.508 ± 0.018
16,APASFRVLISAF,0.0368 ± 0.0029
17,APPRSLSPPLLS,0.701 ± 0.011
18,ARFFFFCVGILI,0.474 ± 0.067
19,ARKWVAVTVTLW,0.232 ± 0.013
20,ARVSLSFVSVSA,0.442 ± 0.012

row,Sequence,protein stability index
1,ARWNTDRRRRQL,0.711 ± 0.024
2,ASIEVGNVIKQM,0.7189 ± 0.0025
3,ASSSPAPYAPYT,0.7559 ± 0.0043
4,ATAVMILCFRWC,0.492 ± 0.018
5,AVLAALVSTLAG,0.565 ± 0.0091
6,AVPTSPYSLIVY,0.495 ± 0.088
7,AWGSWTLCVAVH,0.0323 ± 0.0061
8,AWWMALAVPIVA,0.0219 ± 0.0076
9,CCFVGLRYVLWV,0.5 ± 0.018
10,CCLGVIASFIVW,0.435 ± 0.15
11,CFLLSYRWVFLC,0.0678 ± 0.0095
12,CFSIPLVILNVL,0.496 ± 0.02
13,CFWLLSSLLLFL,0.474 ± 0.0089
14,CFYVGFLGYFVF,0.556 ± 0.005
15,CGLGKVLGWRWV,0.7267 ± 0.002
16,CGPLLVTLVLSM,0.423 ± 0.02
17,CLAWWLGRVWVC,0.225 ± 0.0095
18,CLILGLFSLIFL,0.5644 ± 0.00097
19,CLRVSFFFWLFA,0.562 ± 0.0068
20,CRFYIRITRRYS,0.576 ± 0.024

row,Sequence,protein stability index
1,CRLLVFGLCVGA,0.332 ± 0.0083
2,CRWHLRIVRGLM,0.665 ± 0.00068
3,CSKGLSILLLLL,0.672 ± 0.028
4,CSRDVFLFIKFL,0.544 ± 0.018
5,CSSLIMIITCVN,0.289 ± 0.013
6,CTESVYIIRFML,0.661 ± 0.025
7,CVEACVWYNAGL,0.782 ± 0.024
8,CVILVVISGLLG,0.315 ± 0.039
9,CVPGPRWWYHSA,0.755 ± 0.015
10,CWFGLVSLFWVV,0.52 ± 0.012
11,FGWLELVWFDLG,0.684 ± 0.031
12,GIFYVRTIWSCG,0.348 ± 0.0043
13,GRWGGYVGREWG,0.522 ± 0.025
14,GSMGGVGVLGGD,0.6535 ± 0.0059
15,IGWGGGTWVKMG,0.7335 ± 0.0016
16,LEDVLFVMVINI,0.542 ± 0.028
17,LLSLLLDPLLCL,0.624 ± 0.0029
18,SDGGVVRGGCRG,0.787 ± 0.012
19,SVYLYFQVVAYG,0.0815 ± 0.058
20,VWVVRGFLGFGG,0.526 ± 0.029

# Same assay, conditions: genetic background: das1 deletion; temperature: 30 C
row,Sequence,protein stability index
1,ACACFWVVWVGW,0.248 ± 0.024
2,ACEFRFFYVFRC,0.31 ± 0.056
3,AERPVLIIIEFG,0.337 ± 0.031
4,AFFCTLCLFLVS,0.36 ± 0.036
5,AFLCVFGFCFFV,0.372 ± 0.035
6,AFRLRHEIISLM,0.63 ± 0.056
7,AGGLLIGSVGVG,0.4439 ± 0.0038
8,AISLPVEVLAFS,0.286 ± 0.051
